Our source for the amyloid nucleation score values is the supplement of paper PMC12042874.

This data set can be described thus: amyloid nucleation score (Sup35N fusion, yeast selection) (log enrichment); library NNK2; higher = more nucleation; inactive = no reads after selection. In outline:
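Yeast lacking psi expressed peptides of 20 random codons fused to Sup35N, received 100 μM copper sulfate for 24 hours, and were then grown for 7 days at 30°C on medium lacking adenine and uracil. Illumina sequencing of input and output plasmid inserts provided the reads. Nucleation scores are DiMSum log enrichments of output over input, centred on the mode of non-aggregating sequences. Any sequence with under 100 input reads was excluded.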

± gives the uncertainty stated by the source.

Take FLKTKSFMVKMTGVNNQVFL: the amyloid nucleation score came out at 5.96 ± 0.071.

With TVLVSRFDIIRHRCPTELKR, the amyloid nucleation score worked out at 0.153 ± 0.8.

In turn, FYSTLFHFPYLVDQMYGPTI displayed an amyloid nucleation score of -1.29 ± 1.

For GVVISCWRLWWDTDMMHR, the amyloid nucleation score was determined as 0.007 ± 0.24.

For FVEMYGLWPSFGVKRKVLKV, the amyloid nucleation score is -0.904 ± 0.53.

LIFFYSS registered an amyloid nucleation score of -1.05 ± 1.

CICLIMRTKTCELGSLLG: the amyloid nucleation score was determined as 5.781 ± 0.046.

On to LYDVAQDEPLVSRMGLFDPR, for which the amyloid nucleation score is 3.46 ± 0.069.

In the case of ARECNY, the amyloid nucleation score was 3.78 ± 0.063.

As for SRNFVPVHRCVGGF, the amyloid nucleation score entry was “inactive”.

Turning to ILRSRGERISASY, the amyloid nucleation score came out at 2.97 ± 0.14.

As to FIRSSIVWCC, the amyloid nucleation score stood at 6.04 ± 0.077.

With SCSWLLSEIGCESVEIRRTV, the amyloid nucleation score stood at 5.51 ± 0.082.

LVTLFESGFFRRLTSMDGLF yielded an amyloid nucleation score of 0.115 ± 0.51.

Regarding REFLIYFCFQIMCCRTYGPA, the amyloid nucleation score is 5.125 ± 0.046.

Take PLGYGMGLRGLFGLLDSYFG: the amyloid nucleation score is 0.19 ± 0.8.

Consider LNLLADNTLYGDSSYVGYLR, for which the amyloid nucleation score amounted to 0.021 ± 0.4.

In turn, YMSATVRCIYSRLY had an amyloid nucleation score of 3.05 ± 0.13.

Regarding WLPMGRAGLCYYGEFDNSCW, the amyloid nucleation score entry was “inactive”.

As for YVCCR, the amyloid nucleation score was found to be 0.565 ± 0.46.

Take KHFAIW: the amyloid nucleation score is -0.08 ± 1.

FGCPIVPVISIGFPLYGVYY came in with an amyloid nucleation score of 1.1 ± 0.3.

NNDDQSFCAWVFNDVQ registered an amyloid nucleation score of 0.056 ± 0.6.

Turning to MNIFKYFQSSSETMLTLKCT, the amyloid nucleation score was -0.724 ± 1.

Substance ILFWFRT displayed an amyloid nucleation score of 4.9 ± 0.043.

As to PGHNQKERLLQLRSI, the amyloid nucleation score entry was “inactive”.

Consider KMLSMDNYD, for which the amyloid nucleation score came to 0.043 ± 1.

The substance IHLKLRRYLDNYYLNATNCG yielded an amyloid nucleation score of -0.509 ± 0.31.

In the case of NLYMFIRRAPDIIFCAHVYQ, the amyloid nucleation score came out at 4.35 ± 0.051.

VRFPTSLFSAEQCTPALCSV registered an amyloid nucleation score of 0.066 ± 1.

Regarding LSIRYLVYEPN, the amyloid nucleation score is 0.27 ± 0.36.

The substance CSEVLRTFGKARHTEAR showed an amyloid nucleation score of 0.501 ± 0.2.

Substance STRKCFLMLILTRFGMCC had an amyloid nucleation score of 0.603 ± 0.38.

AIYKDRGWGATGHVFRILGR came in with an amyloid nucleation score of 0.752 ± 0.57.

With KALFLYYSSVRITHNKLHAR, the amyloid nucleation score entry is “inactive”.

Take RGLLLSTMRGHIDSLRLS: the amyloid nucleation score entry is “inactive”.

With FIHRDGYSFDQVGFMGACF, the amyloid nucleation score came to 0.092 ± 1.1.

Substance YAFQW came in with an amyloid nucleation score of 0.152 ± 0.77.

Regarding LVSFKGKVLFFIS, the amyloid nucleation score was 1.86 ± 0.13.

RLSDLTQVLLDSLTRCGWWG showed an amyloid nucleation score of 0.841 ± 0.43.

The substance HRTKRGRHFIFRTCKQYYPG showed an amyloid nucleation score of 2.81 ± 0.071.

Regarding RHKYMIKVILRHFTFIIIGS, the amyloid nucleation score was -0.05 ± 0.62.

The substance RGCIGK came in with an amyloid nucleation score of -0.161 ± 0.65.

In turn, MYTAMSDSPFNVWRYGMSSY returned an amyloid nucleation score of -0.382 ± 0.29.

In turn, VTRDFSRGIGDWLICGDILE had an amyloid nucleation score of -1.81 ± 0.49.

For IILFTIARDLSRVGFRFLMA, the amyloid nucleation score is -0.545 ± 0.56.

Take DVAGKL: the amyloid nucleation score was -0.151 ± 0.39.

As for SNMNNPRHLCAKLSKRQMSY, the amyloid nucleation score result is “inactive”.

RVSRRCVYWRRQGHWAIFGQ gave an amyloid nucleation score of 0.098 ± 1.

Turning to EREVCMFRLYAKRGPAVDWL, the amyloid nucleation score came to 2.19 ± 0.21.

In turn, FVRHTHFG showed an amyloid nucleation score of -1.21 ± 1.1.

In turn, CAGMWRFMGMVFGISTLFQC came in with an amyloid nucleation score of -1.44 ± 0.41.

In turn, NRIGLCRGLNQFFLPGMWSR registered an amyloid nucleation score of 0.283 ± 0.26.

LYVSFDYGAQRVHYSTAYVK: the amyloid nucleation score was -0.013 ± 0.48.

In the case of VLLTNQRMVFCMGRFAPRVG, the amyloid nucleation score was -0.556 ± 0.32.

For LYHEDRSVISRLVSSRLKCK, the amyloid nucleation score came out at 0.389 ± 0.38.

In the case of KSGMWAFYSEDKRTSGLLRW, the amyloid nucleation score came to 0.626 ± 0.65.

The substance AERIFSQ had an amyloid nucleation score of -1.45 ± 0.62.

As to IGLTLHMRRVVGAKSFKMPL, the amyloid nucleation score came out at 0.29 ± 0.77.

Substance AMNRFST had an amyloid nucleation score of -0.975 ± 1.1.

Turning to FVLHIMRLSCYCE, the amyloid nucleation score was -0.29 ± 0.45.

As to SNLMISTCEQMGRCVGDDAV, the amyloid nucleation score was -0.067 ± 0.36.

SFDTCRSLIRLYHVPPRTVL: the amyloid nucleation score was -0.276 ± 0.61.

Consider SWKSFKRPGTRCRGQYYYMS, for which the amyloid nucleation score was -0.266 ± 1.

Take IRYWLNERMVSDRRTVTGGV: the amyloid nucleation score amounted to 7.47 ± 0.077.

For YCMASLSSLNLVRHWDDESS, the amyloid nucleation score was -1.01 ± 1.1.

On to MLLHMWCWIGPGKYLSVTKF, for which the amyloid nucleation score entry was “inactive”.

In the case of VIFTGKDLLVSLQTKCLAVW, the amyloid nucleation score was found to be 0.942 ± 0.81.

In turn, LNNYSSGFRGMIVFFVVVYV showed an amyloid nucleation score of -1.06 ± 0.61.

As for YNRGMQLIAVVL, the amyloid nucleation score was 0.725 ± 0.39.

The substance VLLLAQHVLSGSNFTMG gave an amyloid nucleation score of 3.44 ± 0.045.

As for LNLGREYVGLKD, the amyloid nucleation score was 0.246 ± 0.24.

The substance GIKRMCMVPPVIKSNAYSLN displayed an amyloid nucleation score of 2.95 ± 0.062.

As for GRPAAHAPSHPTRSVLGMS, the amyloid nucleation score was 0.763 ± 0.47.

LCQHREMALMLGGEPADDWG gave an amyloid nucleation score of 1.87 ± 0.36.

For the substance LVVLD, the amyloid nucleation score was -0.262 ± 0.79.

Turning to LCFKLMNSKSWMRIQTAWTL, the amyloid nucleation score stood at 0.384 ± 0.34.

For VGGQRHWYLYHDSLHFPQLE, the amyloid nucleation score came out at 0.396 ± 0.62.

Turning to FGWAL, the amyloid nucleation score result was “inactive”.

VCRPRTTNIGAWRRFRFLFW showed an amyloid nucleation score of -0.601 ± 0.41.

The substance FRYHRTSCQSHSVWRTFTSF registered an amyloid nucleation score of -0.884 ± 0.39.

Take MSGFKGVITSTFIANSLLPM: the amyloid nucleation score is -1.17 ± 0.48.

Turning to NMLKGMCWVTLCIWMYMRLC, the amyloid nucleation score is 4.09 ± 0.057.

With LWTHGSYSVLRLIEPVGAQE, the amyloid nucleation score was determined as 0.971 ± 0.51.

For CECVSSCVYSVILLGCTRSF, the amyloid nucleation score entry was “inactive”.

Turning to EGFKYWIDKGSSGTVCVKST, the amyloid nucleation score amounted to 0.249 ± 0.65.

For the substance SYLHGDNQLGLSGASFRSRW, the amyloid nucleation score entry was “inactive”.

LKISVCQLRLFKLGARTRGW showed an amyloid nucleation score of 0.158 ± 0.8.

On to IFRCRYTSGRFNAALSCC, for which the amyloid nucleation score was -1.44 ± 0.49.

Consider SIGVSDGNPGRAVGGGLMGH, for which the amyloid nucleation score is 0.098 ± 0.49.

Regarding VLSLHDSVLLYRSAGIRYGW, the amyloid nucleation score was 5.03 ± 0.058.

For RRSWDTYMGERGHQLPNPCG, the amyloid nucleation score turned out to be 0.93 ± 0.36.

On to IFIRMH, for which the amyloid nucleation score was 2.48 ± 0.16.

In turn, TVRVGAIVNSTHLVGTNSAF gave an amyloid nucleation score of -0.314 ± 0.34.

Substance TDCIWFHYLVTLWFLIRRCP yielded an amyloid nucleation score of 0.741 ± 0.66.

For QIYGCNWLCLQVRHPV, the amyloid nucleation score turned out to be 8.061 ± 0.079.

Substance VALRFTIMDCRIYLYSLNVF came in with an amyloid nucleation score of 0.125 ± 0.79.

Regarding CYSVFSLY, the amyloid nucleation score was -0.81 ± 1.

Regarding GATCTSCDRCIALVSGGRKR, the amyloid nucleation score was determined as 0.313 ± 0.44.

Take IRNDKYW: the amyloid nucleation score is -0.101 ± 0.31.

For the substance WWQGI, the amyloid nucleation score was -0.168 ± 1.1.

HYLVS yielded an amyloid nucleation score of 0.326 ± 0.49.

As for LVNNGINPPFGPSSLSRGMK, the amyloid nucleation score was -0.31 ± 0.4.

Regarding MDHCTFYIRGMMPRMYGCTK, the amyloid nucleation score was -0.711 ± 0.44.

SPVVKFRLLQSINLTHCY displayed an amyloid nucleation score of 4.47 ± 0.05.

Regarding TYCHYVADFLPLFRFRISGG, the amyloid nucleation score was found to be 3.1 ± 0.065.

NLVFSTRIHKFFLNRGEG showed an amyloid nucleation score of 5.15 ± 0.058.

Turning to EYYFSTELGGVFTLY, the amyloid nucleation score was determined as 1.18 ± 0.12.

VRDSSNYMTLFRCSNFWHTR returned an amyloid nucleation score of 6.488 ± 0.051.

Take DTRKFLDKLYA: the amyloid nucleation score was -0.13 ± 0.44.

Take IPYNLIASVMLFKDLNWFAK: the amyloid nucleation score worked out at 6.491 ± 0.05.

In the case of PGSNALVGLTIRCNVILKGG, the amyloid nucleation score worked out at 4.68 ± 0.086.

The substance HHNPGVWMKGSPCMWKIVQI gave an amyloid nucleation score of 4.76 ± 0.076.

The substance NLHLGMEFTCELRCYWIRLP returned an amyloid nucleation score of 0.279 ± 0.5.

Regarding SLNAL, the amyloid nucleation score was -0.296 ± 0.49.

Regarding RVLREKCSIGVAGKYSY, the amyloid nucleation score was -0.512 ± 0.49.

For LLYTTCSFGYLMQKFVL, the amyloid nucleation score was 1.58 ± 0.31.

As to RLILY, the amyloid nucleation score was -0.775 ± 0.43.

Take MRWGY: the amyloid nucleation score is -0.393 ± 1.

For the substance DSWFGRFYDEESSWCWAMVR, the amyloid nucleation score is 0.039 ± 0.36.

GTDSL had an amyloid nucleation score of -0.226 ± 1.1.

Substance DMLPLMSAVPHSFSMLVWGE displayed an amyloid nucleation score of -0.109 ± 0.36.

Consider FGLRIKPGEKV, for which the amyloid nucleation score was found to be 0.783 ± 0.74.

On to AWDGIHTMMITYLKFIEKCQ, for which the amyloid nucleation score is -1.31 ± 0.62.

The substance VLKCGHKYLVIDSWKL had an amyloid nucleation score of 1.78 ± 0.092.

Consider HVYLSLEDQGILNSTECMQH, for which the amyloid nucleation score was -0.393 ± 1.1.

On to YWKGNTRIGQVLFYTLSCKT, for which the amyloid nucleation score came to 0.389 ± 0.8.

TICYV displayed an amyloid nucleation score of -0.564 ± 0.35.

In turn, AGSSS displayed an amyloid nucleation score of -0.561 ± 0.63.

LGCEDIHKEYSLHFSIWMQM displayed an amyloid nucleation score of 0.975 ± 0.18.

FRNTWFCFLLKLLTS: the amyloid nucleation score was -0.818 ± 0.42.

As for FGGIFCFSLYR, the amyloid nucleation score was 3.52 ± 0.071.

For the substance EVHGCYRAWDCMMVACVNAL, the amyloid nucleation score is 0.963 ± 0.53.

CFSSIQIRDKTVVGDSWMFR showed an amyloid nucleation score of 3.58 ± 0.14.

FSRICKAMYQKSGYKINGIN came in with an amyloid nucleation score of -0.283 ± 1.

Substance HLCPTHLNNETLRTNFWAN yielded an amyloid nucleation score of 1.96 ± 0.19.

Regarding YRMLSIKCGM, the amyloid nucleation score is -0.707 ± 0.79.

LSKGTPSQSMMSSLLSINTL came in with an amyloid nucleation score of -0.159 ± 1.

The substance WLLPTTSLLSSQPAQAFRDH showed an amyloid nucleation score of -0.363 ± 0.49.

ALSSVFYIDFHFDYLYDVTL showed an amyloid nucleation score of 2.72 ± 0.2.
